In publication PMC7335206 one finds Kd and kon data, which are given here for 1 substance.

In experiment [1] the target is N-terminal transactivation domain (TAD) of the tumor suppressor protein p53, labeled with Alexa 488 and Alexa 594, biotinylated. The experiment is described as follows: FRET or BRET; single-molecule three-color FRET, CW donor excitation; biotinylated TAD immobilized on PEG-coated glass via NeutrAvidin, 25 nM NCBD in solution; 10 mM Tris pH 7, 0 mM NaCl, 23 °C; maximum likelihood analysis of photon trajectories, 8-state model with acceptor blinking. (In BRET a luciferase serves as donor, and the signal depends on an acceptor being close.)

The target is the same in experiment [2]. In words: FRET or BRET; single-molecule three-color FRET, CW donor excitation; biotinylated TAD immobilized on PEG-coated glass via NeutrAvidin, 100 nM NCBD in solution; 10 mM Tris pH 7, 10 mM NaCl, 23 °C; maximum likelihood analysis of photon trajectories, 8-state model with acceptor blinking.
The target is the same in experiment [3]. The experiment is described as follows: FRET or BRET; single-molecule three-color FRET, CW donor excitation; biotinylated TAD immobilized on PEG-coated glass via NeutrAvidin, 200 nM NCBD in solution; 10 mM Tris pH 7, 30 mM NaCl, 23 °C; maximum likelihood analysis of photon trajectories, 8-state model with acceptor blinking.

For the substance “nuclear coactivator binding domain (NCBD) of the CREB binding protein (CBP), S2066C, labeled with CF680R (domain or fragment)”, the Kd was 123 nM in experiment [1], 520 nM in experiment [2] and 2480 nM in experiment [3]. For the same substance, the kon in experiment [1] worked out at 2.04e+09 M⁻¹ s⁻¹; in experiment [2], 9.1e+08 M⁻¹ s⁻¹; in experiment [3] it was 5.2e+08 M⁻¹ s⁻¹.

As usually defined, the Kd is the constant that tells how readily two partners part at equilibrium. Low values mean tighter binding, high ones weaker binding. For orientation: kon means the rate constant with which the complex forms.
